The assay deals with T1, SARS-CoV-2 Omicron BA.1突变株 S蛋白 (Sino Biological，货号:40589-V08B33) (SARS-CoV-2 Omicron BA.1突变株).
T1 construct: also called Omicron BA.1 S蛋白
Description: ELISA, S protein coated, antibody titrated from 10 μg/mL. (In general: ELISA stands for enzyme-linked immunosorbent assay.)

B1: 抗新型冠状病毒SARS-CoV-2的广谱抗体(VSM12-37) (antibody, V domains shown)
VH: EVQLVESGGGLVQPGGSLRLSCAVSGFTVSSNYMSWVRQAPGKGLEWVSLIYSGGSTYYADSVKGRFTVSRDRSKNTLYLQMNSLRAEDTALYYCARDNPRVGSNYWGQGTLVTVSS
VL: DIQMTQSPSSLSASVGDRVTITCQASQDINNYLNWYQQKPGKAPKLLIYDASNLEAGVPSRFSGSGSGTDFTFTISSLQPEDIATYYCQQCDNVPLTFGGGTKVEIKR
notes: also called VSM12-37抗体
Usually EC50 stands for the midpoint of the concentration-response curve. The low end stands for greater potency, the high end for weaker potency. Take B1: the EC50 is over 5 µg/mL.

These data come from patent publication CN118388640A (CHENZHOU NO 1 PEOPLES HOSPITAL, dated 2024).
